Values quoted from earlier work as cited in US20050054617A1, “Use of potent, selective and non toxic c-kit inhibitors for treating mastocytosis” (priority 2001, published 2005).

Tested on: systemic mastocytosis
Conditions: person, infiltration of bone marrow, skin and gastric mucosa; recurrence after four months

B1: INFγ: interferon used in the art for mastocytosis (protein, UniProt P01579 24-161, looked up)
Interferon gamma: QDPYVKEAENLKKYFNAGHSDVADNGTLFLGILKNWKEESDRKIMQSQIVSFYFKLFKNFKDDQSIQKSVETIKEDMNVKFFNSNKKKRDDFEKLTNYSVTDLNVQRKAIHELIQVMAELSPAAKTGKRKRSQMLFRG
  clinical outcome in systemic mastocytosis: improvement of the clinical situation and gastrointestinal and hematological signs
